Data taken from the nanobody polyreactivity screen of Harvey et al. (2022).

Assay: yeast display, Sf9 membrane polyspecificity reagent, FACS + sequencing; frameworks hold sequencing errors
How it was run: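 After 36–48 hours of galactose induction, yeast (Saccharomyces cerevisiae BJ5465) displaying a synthetic nanobody library were stained at 4 °C for 1 hour with 10% biotinylated, detergent-solubilized Sf9 membrane reagent. Streptavidin microbeads enriched the stained cells before FACS sorting into low and high (top ~1%) gates on anti-HA and streptavidin fluorescence. Each clone's polyreactivity label reflects its gate of origin.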

Sequence | polyreactivity (PSR sort gate)
QVQLVESGGGLVQAGGSLRLSCGASGSIFKYYAMGWYREARGKERELVAAITWSGGRTNYADSVKGRFTISRDNAKNTVYLQMNSLKPEDTAVYYCAATRRRYRPYEYWGLGTQVTVSS | high polyreactivity
QVQLVESAGGLDQAGGSLRLSCAASGSIFYIYAMGWYRQAPGKERELVATISGSGGSTHYADSVKGRFTISRDNAKNSVYLQKNSLKPEDTAVYYCAADVLPYGYYWGQGPQVTVSS | low polyreactivity
QVQLVESGGGLVQAGGSLRLSCDASGSIFAYYAMRWYRPAPGKERELVAAISSRGGNTYYADSVKGRFTISRDYAKNTVYLQMNSLKPEDNAVYYCAAYSASYTFDYWGQGTQVTVSS | high polyreactivity
QVQLVESGGGLVQAGGSLRLSCAASGLTLWTYAMGWYIQAPGQERELVARIRSGGSTYYADSVKGRFTISRDNAKNTVYLQMNSLKPEDTAVYYCAADLQSRVDYWGQGTQVTVSS | high polyreactivity
QVQLVESGGGLVQAGGSLRLICAASGSTFCRYAMGRDRQARGKEMELVAAISTRGGSTRYADSVKGRFTISRDYAKYTVYLLINRLKPEDTGVYYCDALGQGRTSATSFVDYEYWGQGTQVTVSS | high polyreactivity
QVQLVESGGGLVQAGGSLRLSCAASGSTFRAYAMRWYRQAPGKETELVAAISSSGGSTYYADSVKGRFTISRDNAKKTVYLQMNSLKPEDTAVYYCAARGWWSRYGYWGQGTQVTVSS | high polyreactivity
QVQLVESGGGLVQAGGSLRLSCAASGFIIKSYAMGWYRQAPGKERELVAAISYTGSITYYADSVKGRFTISRDNAKNTVYLQMNSLKPEDTAVYYCAVGRYADQHDYWGQGTQVTVSS | high polyreactivity
QVQLVESGGGLVQAGGSLRLSCAASRIFRGYAMGWYRQAPGKERELVAAIRRGGSTNYADSVKGRFTISRDNAKNTVYLQMNCLKPEVTAVYYCNAYLYLPRYDYWGQGTQVTVSS | high polyreactivity
QVQLVESGGGIVQAGGSLRLISAASGRTYKSYTIGWYRQAPGKEREFVAAISSRGGNTYYADSVKGRFTISRDNAKNTVYLQMNSLKPEDTAVYYCAARYGYSYDRRDYWGQGTQVTVSS | high polyreactivity
KVQLVETGGGLVQAGGSLRLSCAASGRTFWGYAKGWYRQAPGKEREFVAAISCGGRTNYADSVKGRFTISRDNAKNTVYLQLNSLKPEDSAVYYCATVSGYGYYYWGQGTQVTVSS | low polyreactivity
QVQLVESGGGLVQAGGSLRLSCAASGSIFVGNAMGGYRQAPGKERELVAAITSSGGRTYYADSVKGRFTISRDNAKNTVYLQMNSLKPEDTAVYYCNTSRTRRFSLWAYDYWGQGTQVTVSS | high polyreactivity
QVQLVESGGGLVQAGGSLRLSCAASGRIFPSYAMVWYIQAPGKEREMVATISYRGTSTYYADSVKGRFTISRDNAKNTVYLQMNSLKPEDTGVYYCNKATRHHFYYWGQGTQVTVSS | high polyreactivity
QVQLVESGGGLVQAGGSLRLSCAASGRIFQRYTMGWYRQAPGKEWEFVAAITYSGGSTHYADSVKGRFTISRDNAKNTVYLQMNSLKPEDTAVYYCATDYIRYRWYVFYGWLWRYDYWGQGTQVTVSS | low polyreactivity
QDQLVESGGGLVQAGGSLRLSCAASGSISSTNAMGWYRQAPGKERELVATISWIGGSTYADSVKGRFTISRDNAKNTVYLQMNSLKPEDTAVYYCNRDWIFTKDYDYWGQGTQVTVSS | low polyreactivity
QVQLVESGGGLVQAGGSLRLSCAASGSIFKYYAMGWYRQAPGKERELVAAITWSGGRTNYADSVKGRFTISRDNAKNTVYLQMNSLKPEDTAVYYCNKAYPGLERWYRGLYYWGQGTQVTVSS | high polyreactivity
QVQLVESGGGLVQAGGSLRLSCAASGSNFQFNAMGWYRQAPGKEREFVAAITSSAGRTYYADSVKGRFTISRDNAKNTVYLQMNSLKPEDSAVYYCGDTFYRRYVDLGYWGQGTQVTVSS | high polyreactivity
QVQLVESGGGLVQAGGSLRVSCAASGSIFKIYAMGWYRLAPGKERELVASITGSGGSTYYADSVKGRFTISRDNAKNTVYLQRNCLKPEDTAVYYCAAAVLGSSKSEVDPDRPEYYYWGQGTQVTVSS | low polyreactivity
QDQLVESGGGLVQAGGSLRLSCAASGGIFPPNVMGWYRQAPGKERELVAAISRSGGSTYYADSVKGRFTFSRDNAMNTVYLQMNSLKPEDTAVYYCAAANTQRGFRYDYWGQGTQVTVSS | high polyreactivity
QVQHVESGGGLVQAGGSLRLSCAASGSTFVYYAMGWYRQPPGKERELVAVITRGGRTYYADSVKGRFTISRDNAKNTVYLQMNSLKPEDTAVYYCNKVTPHYHDTGLDYWGQGTQVTVSS | high polyreactivity
QVQLVESGGGLVQAGGSLRLSCAASGLTFEYYTMGWYRQAPGKERELVAAITSSGGSTYYADSVKGRFTISRDNAKNTVYLQMNSLKPEDTAVYYCNAYWTYEFPSYDYWGQGTQVTVSS | low polyreactivity
QVQLVESGGGLVQAGGSLRLSCAASGSIFWRNAMGWYRQAPGKERELVAAITSGGSTYYADSVKGRFTISRDNAKNTVYLQMNSLNPEDTAVYYCAAGYSYRYGYWGQGTQVTVSS | low polyreactivity
QVQLVESGGGLVQAGGSLRLSCAASGGIFRYYAMGWYRQAPGKERELVATITSGSITNYADSVKGRFTISRDNAKNTVYLQMNSLKPEDTAVYYCAALGAFPSLEFDYWGQGTQVTVSS | low polyreactivity

Sequence | polyreactivity (PSR sort gate)
QVQLVESGGGLVQAGGSLRLSCAASGRTFYRYAMGWYRQAPGKERELVAAIRWSGGSTYYADSVKGRFTISRDNAKNTVYLQMNSLKPEDTAVYYCAARAIQLVDGRYKVRMDYWGQGTQVTVSS | low polyreactivity
QVQLVESGGGLVQAGGSLRLSCAASGRTFYPYAMGWYRQAPGKERELVAAINRRGGSTYYADSVKGRFTISRDNAKNTVYLQMNSLKPEDTAVYYCAAKTTTPYRYIYYYWGQGTQVTVSS | high polyreactivity
QVQLVESGGGFVQAGGSLRLSCAASGRTFRWNAMGWYRQAPGKERELVAAISSGGSTYYADSVKGRFTISRDNAKNTVYLQMNSLKPEDTAVYYCAKTSFKYRWSYPVISMDYWGQATQVTVSS | high polyreactivity
QVQLVESGGGLVQAGGSLRLICAASGRTFPYNTMGWYRQAPGKERELVAGISIRGSSTYYADSVKGRFTISRDNAKNTVYLQMNSLKPEDTAVYYCAKRYYGWYGNFDYWGQGTQVTVSS | high polyreactivity
QVQLVESGGGLVQAGGSLRLSCAASGIIFHGYAMGWYRQAPGKERDLVAAITASDGDTYYADSVKGRFTISRDNAKNTVYLQMNSMKPEDTAVYYCAADFWYYHTRMDYWGQGTQVTVSS | low polyreactivity
QVQLVESGGGLVQAGGSLRLSCAASGIIFTGNAMGWYIQAPGKERELVAAITSGDTTNYADSVKGRFTISRDNAKNTVYLQMNSLKPEDTAVYYCAKELQVRQAGDYWGQGTQVTVSS | low polyreactivity
QVQLVESGGGLVQAGGSLRLSCAASGFIFYRYAMGWYRQAPGKERELVAAISRGDSTYYADSVKGRFTISRDNAKNTVYLQMNSLKPEDTAVYYCNADRPRYTYRATTYTGRYDYWGQGTQVTVSS | low polyreactivity
QVQLVESGGGLVQAGGSLRLSCAASGSTFQYYAMGWYRQAPGKERELVAAISYSSGTTYYADSVKGRFTISRDNAKNTVYLQMNSLKPEDTAVYYCARPARYSYPTSTAFDYWGQGTQVTVSS | low polyreactivity
QVQLVESGAGLVQAGGRLRLSCAASGRIFIRNAMGWSRQAPGKERELVAAIDSVGSTNYADSVKGRFTISRDNAKNTVYLQLNSLKPEETAVYYCAARGWKYASPYWGYYYWGQGSQVTVSS | low polyreactivity
QVQLVESGGGLVQEGGSLRLSCAASGNTVGINAMGWYRQAPGKERELVASISFTGSSTYYADSVKGRFTISRDNAKNTVYFQMNSLKPEDTAVSYCNRDRITLYEYDYWGQGTQVTVSS | low polyreactivity
QVQLVESGGGLVQAGGSLRLSCAASGSTFQRYAMGWYRQAPGKERELVAAITWSGGSTYYADSVKGRFTISRDNAKNTGYLQMNSLKPEDTAVYYGAARSVRYGFGYWGQGTQVTVSS | high polyreactivity
QVQLVESGGGLVQAGGSLRLSCAASGITFSRYAMGWYRQAPGKERELVATITFSGTSTFYADSVKGRFTISRDNAKNTVYLQMNSLKPEDTAVYYCARLRFGSWSTYYYWGQGTQVTVSS | low polyreactivity
QVQLVESGGGLVQAGGSLRLSCAASGSIFGYYAMGWYSQAPGKERELVAAFTASGGSTYYADSVKGRFTISRDNAKNTVYFQMNSLKPEDTAVYYCAAGTHTDYGRYYYWGQGTQVTVSS | low polyreactivity
QVQLVESGGGLVQAGGSLRLSCAASGRIFSLNAMGWYRQAPGKERELVAGIRKRGGSTYYADSVKGRFTISRDNAKNTVYLQMNSLKPEDTAVYYCAARFYYGPGGYTMYYWGQGTQVTVSS | high polyreactivity
QVQLEESGGGLVQEGGSLRISCAASGRTFLRYVMGWYRQAPGKERALVAAISSRGGSTYYADSVKGRFTISRDNAKNTVYLQMNSLKPEDTAVYYCAARFKVRDYPDGNYEYWGQGTQVTVSS | high polyreactivity
QGQLVESGGGFVQAGGSLRLSCAASGSTFRYYTMGWYRQAPGKEREFVAAITSSGTSTYYADSVKGRFTISRDIAKNTVYLQMNSLKPEDTAVYYCNKVGIYGSRSRYDSWGQGTQVTVSS | high polyreactivity
QVQLVESGGGLVQAGGSLRLSCAASGITFIYYTMGWYRQEPGKERELVAAISSRGSSTYYADSVKGRFTISRDNAKNTVYLQMNSLKPEDTAVYYCAAVQYRYGGMDYWGQGTQVTVSS | high polyreactivity
QVQLVESGGGLVQAGGSLRLSCAASGSIFVTYAMGWYRQAPGKERELVAAISTSGGSTYADSVKGRFTISRDNAKNTVYLQMNSLKPEDTAVYYCNADDPGYAVPWYWFKYDYWGQGTQVTVSS | low polyreactivity
QVQHVESGGGLVQAGGSLRLSCAASGRIFPAYAMGWYRQATGKERELVATISSTGSRSYYADSVKGRFTISRDNAKNTVYLQMNSLKPEDTAVYYCAARQRYKVGGLYGVDYWGQGTQVTVSS | high polyreactivity
QVQLVESGGGLVQAGGSLRLSCAASGFIFLYYAMGWYRPAPGKEGELVAAISRSGGRTYYADSVKGRFTISRDNAKNTVYLQMNSLKPEDTAGYYCAARSARTSSFPIFYYWGQGTQVTVSS | high polyreactivity
QVQLVESGGGLVQAGGSLRLSCAASGIIFTTNAMGWYRQAPGKERELVATITSGGGTYYADSVKGRFTISRDNAKNTVYLQMNSLKPVDTAVYYCAATPGWGPWIFDHSYVDFDYWGQGTQVTVSS | low polyreactivity
